Laboratory results reported in paper PMC5963859.

System: GST-MBNL1 (GST-MBNL1Δ101 in Methods)
Assay: EMSA
Details: EMSA: 0.75 mM MgCl2, 50 mM Tris-HCl pH 7.0, 75 mM NaCl, 37.5 mM KCl, 5.25 mM DTT, 0.1 mg/ml BSA, 0.1 mg/ml bulk tRNA, RNasin 0.4 U/ul; 20 min on ice, gel at …

Sequence: CUG 10x RNA
- IC50: 100 nM
